T1: GAL4 activation domain fusion (ACT) to HAB1 (UniProt Q9CAJ0 23-511, limits assumed)
T1 construct: pACT-HAB1 fusion in yeast reporter strains; also called pACT-HAB1
T1 sequence (looked up): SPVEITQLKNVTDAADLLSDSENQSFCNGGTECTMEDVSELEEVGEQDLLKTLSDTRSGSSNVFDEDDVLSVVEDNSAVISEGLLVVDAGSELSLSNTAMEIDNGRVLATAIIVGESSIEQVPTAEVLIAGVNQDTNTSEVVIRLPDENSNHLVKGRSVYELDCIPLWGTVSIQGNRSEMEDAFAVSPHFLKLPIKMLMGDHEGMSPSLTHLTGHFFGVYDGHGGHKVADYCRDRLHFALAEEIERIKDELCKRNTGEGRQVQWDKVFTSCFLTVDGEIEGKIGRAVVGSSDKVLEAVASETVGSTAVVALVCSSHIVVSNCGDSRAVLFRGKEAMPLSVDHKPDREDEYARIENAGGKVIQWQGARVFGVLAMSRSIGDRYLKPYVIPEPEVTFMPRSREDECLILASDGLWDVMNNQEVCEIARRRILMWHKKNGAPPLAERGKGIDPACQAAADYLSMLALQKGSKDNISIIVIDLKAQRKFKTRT

B1: PYR1^K59R,V81I (receptor, not shown: small tags and cut ends)
chain: MPSELTPEERSELKNSIAEFHTYQLDPGSCSSLHAQRIHAPPELVWSIVRRFDKPQTYRHFIKSCSVEQNFEMRVGCTRDIIVISGLPANTSTERLDILDDERRVTGFSIIGGEHRLTNYKSVTTVHRFEKENRIWTVVLESYVVDMPEGNSEDDTRMFADTVVKLNLQKLATVAEAMARNSGDGSGSQVT
notes: pBD-PYR1 fusion in yeast
B2: PYR1^K59R,F159A (receptor, not shown: small tags and cut ends)
chain: B1 chain with I81V, F159A
notes: pBD-PYR1 fusion in yeast
B3: PYR1^K59R,M158I (receptor, not shown: small tags and cut ends)
chain: B1 chain with I81V, M158I
notes: pBD-PYR1 fusion in yeast
B4: PYR1^K59R,M158V (receptor, not shown: small tags and cut ends)
chain: B1 chain with I81V, M158V
notes: pBD-PYR1 fusion in yeast
B5: PYR1^K59R,M158C (receptor, not shown: small tags and cut ends)
chain: B1 chain with I81V, M158C
notes: pBD-PYR1 fusion in yeast
B6: PYR1^K59R,V83L (receptor, not shown: small tags and cut ends)
chain: B1 chain with I81V, V83L
notes: pBD-PYR1 fusion in yeast
B7: PYR1^K59R,E141Y (receptor)
chain: B1 chain with I81V, E141Y
notes: pBD-PYR1 fusion in yeast
B8: PYR1^K59R,M158T (receptor, not shown: small tags and cut ends)
chain: B1 chain with I81V, M158T
notes: pBD-PYR1 fusion in yeast
B9: PYR1^K59R,F159V (receptor, not shown: small tags and cut ends)
chain: B1 chain with I81V, F159V
notes: pBD-PYR1 fusion in yeast
B10: PYR1^K59R,L87F (receptor)
chain: B1 chain with I81V, L87F
notes: pBD-PYR1 fusion in yeast
B11: PYR1^K59R,T162W (receptor, not shown: small tags and cut ends)
chain: B1 chain with I81V, T162W
notes: pBD-PYR1 fusion in yeast
B12: PYR1^K59R,F159T (receptor, not shown: small tags and cut ends)
chain: B1 chain with I81V, F159T
notes: pBD-PYR1 fusion in yeast
B13: PYR1^K59R,V164K (receptor, not shown: small tags and cut ends)
chain: B1 chain with I81V, V164K
notes: pBD-PYR1 fusion in yeast
B14: PYR1^K59R,A89C,E141Y (receptor, not shown: small tags and cut ends)
chain: B1 chain with I81V, A89C, E141Y
notes: pBD-PYR1 fusion in yeast
B15: PYR1^K59R,E141Y,A160G (receptor)
chain: B1 chain with I81V, E141Y, A160G
notes: pBD-PYR1 fusion in yeast
B16: PYR1^K59R,F159C (receptor, not shown: small tags and cut ends)
chain: B1 chain with I81V, F159C
notes: pBD-PYR1 fusion in yeast
B17: PYR1^K59R,F159M (receptor, not shown: small tags and cut ends)
chain: B1 chain with I81V, F159M
notes: pBD-PYR1 fusion in yeast
B18: PYR1^K59R,E141K (receptor, not shown: small tags and cut ends)
chain: B1 chain with I81V, E141K
notes: pBD-PYR1 fusion in yeast
B19: PYR1^K59R,A89C,V164K (receptor, not shown: small tags and cut ends)
chain: B1 chain with I81V, A89C, V164K
notes: pBD-PYR1 fusion in yeast
B20: PYR1^K59R,A89C,L117C (receptor)
chain: B1 chain with I81V, A89C, L117C
notes: pBD-PYR1 fusion in yeast
B21: PYR1^K59R,A160G (receptor, not shown: small tags and cut ends)
chain: B1 chain with I81V, A160G
notes: pBD-PYR1 fusion in yeast
B22: PYR1^K59R,T162K (receptor, not shown: small tags and cut ends)
chain: B1 chain with I81V, T162K
notes: pBD-PYR1 fusion in yeast
B23: PYR1^K59R,F159L (receptor, not shown: small tags and cut ends)
chain: B1 chain with I81V, F159L
notes: pBD-PYR1 fusion in yeast
B24: PYR1^K59R,A160G,V164K (receptor)
chain: B1 chain with I81V, A160G, V164K
notes: pBD-PYR1 fusion in yeast
B25: PYR1^K59R,V164Y (receptor, not shown: small tags and cut ends)
chain: B1 chain with I81V, V164Y
notes: pBD-PYR1 fusion in yeast
B26: PYR1^K59R,F159I (receptor, not shown: small tags and cut ends)
chain: B1 chain with I81V, F159I
notes: pBD-PYR1 fusion in yeast; also called K59R F1591
B27: PYR1^K59R,L117C (receptor, not shown: small tags and cut ends)
chain: B1 chain with I81V, L117C
notes: pBD-PYR1 fusion in yeast
B28: PYR1^K59R,L117C,V164K (receptor)
chain: B1 chain with I81V, L117C, V164K
notes: pBD-PYR1 fusion in yeast
B29: PYR1^K59R,T162Y (receptor, not shown: small tags and cut ends)
chain: B1 chain with I81V, T162Y
notes: pBD-PYR1 fusion in yeast
B30: PYR1^K59R,A160G,L117C (receptor)
chain: B1 chain with I81V, L117C, A160G
notes: pBD-PYR1 fusion in yeast
B31: PYR1^K59R,A89W (receptor)
chain: B1 chain with I81V, A89W
notes: pBD-PYR1 fusion in yeast
B32: PYR1^K59R,A89I,S92W (receptor)
chain: B1 chain with I81V, A89I, S92W
notes: pBD-PYR1 fusion in yeast
B33: PYR1^K59R,S92I (receptor)
chain: B1 chain with I81V, S92I
notes: pBD-PYR1 fusion in yeast
B34: PYR1^K59R,A89I (receptor)
chain: B1 chain with I81V, A89I
notes: pBD-PYR1 fusion in yeast
B35: PYR1^K59R,S92W (receptor)
chain: B1 chain with I81V, S92W
notes: pBD-PYR1 fusion in yeast
B36: PYR1^K59R,A89I,S92I (receptor)
chain: B1 chain with I81V, A89I, S92I
notes: pBD-PYR1 fusion in yeast

Changes are numbered by the printed parent chain. Numbers in names are those of the source.

For one test, the target named is T1, GAL4 activation domain fusion (ACT) to …. As to the kind of experiment: yeast two-hybrid, X-gal; lowest fludioxonil concentration giving signal.
Regarding B1, the Threshold came out at 100 µM.

Take B2: the Threshold worked out at 100 µM.

With B3, the Threshold was 100 µM.

B4: the Threshold was 100 µM.

As for B5, the Threshold came out at 100 µM.

With B6, the Threshold came out at 100 µM.

Take B7: the Threshold was 100 µM.

In the case of B8, the Threshold came out at 100 µM.

Regarding B9, the Threshold turned out to be 100 µM.

For the molecule B10, the Threshold amounted to 100 µM.

Consider B11, for which the Threshold is 100 µM.

With B12, the Threshold was found to be 100 µM.

With B13, the Threshold came to 100 µM.

For the next test the target is unchanged. As to the kind of experiment: yeast two-hybrid, X-gal; lowest benzothiadiazole concentration giving signal.
B14 yielded a Threshold of 0.2 µM.

On to B1, for which the Threshold was determined as 100 µM.

In turn, B15 showed a Threshold of 5 µM.

B16 yielded a Threshold of 100 µM.

Molecule B17 returned a Threshold of 100 µM.

In turn, B18 showed a Threshold of 100 µM.

Molecule B19 showed a Threshold of 0.2 µM.

For B2, the Threshold amounted to 100 µM.

As to B20, the Threshold was 25 µM.

As for B3, the Threshold turned out to be 100 µM.

The molecule B21 registered a Threshold of 100 µM.

B22: the Threshold came out at 100 µM.

For the molecule B23, the Threshold amounted to 100 µM.

For the molecule B4, the Threshold was 100 µM.

As to B24, the Threshold stood at 5 µM.

In turn, B5 registered a Threshold of 100 µM.

B6 had a Threshold of 100 µM.

With B7, the Threshold amounted to 100 µM.

With B25, the Threshold worked out at 100 µM.

As for B26, the Threshold came to 100 µM.

In turn, B27 came in with a Threshold of 100 µM.

Regarding B8, the Threshold amounted to 100 µM.

The molecule B28 displayed a Threshold of 100 µM.

B9 registered a Threshold of 100 µM.

In turn, B29 had a Threshold of 100 µM.

In the case of B30, the Threshold came out at 25 µM.

Take B11: the Threshold came to 100 µM.

With B12, the Threshold amounted to 100 µM.

In turn, B13 had a Threshold of 100 µM.

A further test shares this target. As to the kind of experiment: yeast two-hybrid, X-gal; lowest dichlobenil concentration giving signal.
Molecule B3 showed a Threshold of 100 µM.

The molecule B22 yielded a Threshold of 100 µM.

For B23, the Threshold amounted to 100 µM.

Consider B4, for which the Threshold stood at 100 µM.

Take B5: the Threshold amounted to 100 µM.

B6 came in with a Threshold of 100 µM.

As to B7, the Threshold was determined as 100 µM.

B25 displayed a Threshold of 100 µM.

The molecule B26 registered a Threshold of 100 µM.

Consider B8, for which the Threshold was found to be 100 µM.

In turn, B9 yielded a Threshold of 100 µM.

For the molecule B29, the Threshold was 100 µM.

B11 displayed a Threshold of 100 µM.

As to B13, the Threshold was 100 µM.

The target is the same in a further test. As to the kind of experiment: yeast two-hybrid, X-gal; lowest mandipropamid concentration giving signal.
The molecule B16 displayed a Threshold of 100 µM.

As for B17, the Threshold was determined as 100 µM.

B2: the Threshold was found to be 100 µM.

B23 returned a Threshold of 100 µM.

For B26, the Threshold came out at 100 µM.

Take B31: the Threshold was determined as 100 µM.

The molecule B9 returned a Threshold of 100 µM.

As to B12, the Threshold was found to be 100 µM.

A further test has the same target. As to the kind of experiment: yeast two-hybrid, X-gal; lowest benoxacor concentration giving signal. On the procedure: The set of 475 mutant plasmids were individually transformed into the Y190 yeast two hybrid reporter strain co-transformed with pACT-HAB1, as previously described (Park et al., 2009). The yeast strains generated were arrayed into 96-well plates yielding what we refer to as the “pocket library”. The pocket library strains were spotted onto agar plates containing selective synthetic dextrose (minus Leu & Trp) medium that was supplemented with a single test compound at 100 μM. The pocket library strains were separately tested for responsiveness to the following compounds: dichlobenil, benzothiadiazole, mandipropamid, fludioxonil, and benoxacor. After incubating test plates at 30° C. for two days, colonies were chloroform lysed and stained to reveal β-galactosidase expression levels, using previously described methods (Park et al., 2009). Mutants displaying responsiveness to the test compound, if present, were identified by virtue of X-gal staining and then subjected to subsequent optimization efforts. Using this approach we identified mutations that conferred detectable sensitivity to the compounds tested (see entries labeled “Pocket Library Screens” in Table 1).
The molecule B32 returned a Threshold of 50 µM.

Take B4: the Threshold is 100 µM.

For the molecule B5, the Threshold was 100 µM.

As for B8, the Threshold came out at 100 µM.

In turn, B31 showed a Threshold of 100 µM.

B33 yielded a Threshold of 50 µM.

B9: the Threshold was determined as 100 µM.

On to B10, for which the Threshold was 100 µM.

B34 displayed a Threshold of 100 µM.

Molecule B35 gave a Threshold of 50 µM.

In the case of B11, the Threshold is 50 µM.

Consider B36, for which the Threshold worked out at 50 µM.

The values above are taken from patent US20160115500A1 (University of California, published 2016).
